From article PMC5611513 (2017)

B1: TplEi (natural protein)
chain: CTSFSSSRSSSMDKTGWITHCFGRFLIDLPPDAVINAGYYLWGDRIEYLDDKPTELAARVDRLEQEWRTQRHKSKGNMFLRKIDFGNESVGLLSWSSEVASKTYLLDTYVTSKPTWHVYRWKGKVSVDREQHAVEISRALARNLRSRAPKEIPSEPGFCIDHAYIAGDSFQVERFGVGVTFPEHPGARFEFRSSTGAELNSLLERVDGFVQNMLSTFAGMETLRKGKHPVGSLPGEEYLVAGSDKGQRGYTFMWEVQGKEESLTEPNLTAGLAVLERSNENGKPPPPAFKSDKEALELWDTIVDSIRVRPTSSSPRGGNAGPSPAPKPATPGGQTLGDHYVYEEFLSSLKPKDSWLDDL

What was measured:
Assay in all cases: ITC
TplEi = biological target: B1
I88A = biological target: I88A
L91A = biological target: L91A
G98A = biological target: G98A

Binder	Ka (TplEi)	Kd (I88A)	Kd (L91A)	Kd (G98A)
Ac-DDLFASIGALWTWAWRGPKARQELLKAEQVEVDD-NH2 [A peptides (“L” peptide, TplE 82-108 plus EQVEVDD)]	7.98e+06 M⁻¹	–	–	–
B1	–	4.8 µM	3.7 µM	1.31 µM
Ac-DDLFASIGALWTWAWRGPKARQELLKAEQ-NH2 [B peptides (“L” peptide, TplE 82-108 plus EQ)]	2.09e+06 M⁻¹	–	–	–
